# IntAct's records for PubMed 29039417
# B1: BBSome complex member BBS5 (Homo sapiens), Q8N3I7 (parent)
# chain: MSVLDALWEDRDVRFDLSAQQMKTRPGEVLIDCLDSIEDTKGNNGDRGRLLVTNLRILWHSLALSRVNVSVGYNCILNITTRTANSKLRGQTEALYILTKCNSTRFEFIFTNLVPGSPRLFTSVMAVHRAYETSKMYRDFKLRSALIQNKQLRLLPQEHVYDKINGVWNLSSDQGNLGTFFITNVRIVWHANMNDSFNVSIPYLQIRSIKIRDSKFGLALVIESSQQSGGYVLGFKIDPVEKLQESVKEINSLHKVYSASPIFGVDYEMEEKPQPLEALTVEQIQDDVEIDSDGHTDAFVAYFADGNKQQDREPVFSEELGLAIEKLKDGFTLQGLWEVMS
# partner: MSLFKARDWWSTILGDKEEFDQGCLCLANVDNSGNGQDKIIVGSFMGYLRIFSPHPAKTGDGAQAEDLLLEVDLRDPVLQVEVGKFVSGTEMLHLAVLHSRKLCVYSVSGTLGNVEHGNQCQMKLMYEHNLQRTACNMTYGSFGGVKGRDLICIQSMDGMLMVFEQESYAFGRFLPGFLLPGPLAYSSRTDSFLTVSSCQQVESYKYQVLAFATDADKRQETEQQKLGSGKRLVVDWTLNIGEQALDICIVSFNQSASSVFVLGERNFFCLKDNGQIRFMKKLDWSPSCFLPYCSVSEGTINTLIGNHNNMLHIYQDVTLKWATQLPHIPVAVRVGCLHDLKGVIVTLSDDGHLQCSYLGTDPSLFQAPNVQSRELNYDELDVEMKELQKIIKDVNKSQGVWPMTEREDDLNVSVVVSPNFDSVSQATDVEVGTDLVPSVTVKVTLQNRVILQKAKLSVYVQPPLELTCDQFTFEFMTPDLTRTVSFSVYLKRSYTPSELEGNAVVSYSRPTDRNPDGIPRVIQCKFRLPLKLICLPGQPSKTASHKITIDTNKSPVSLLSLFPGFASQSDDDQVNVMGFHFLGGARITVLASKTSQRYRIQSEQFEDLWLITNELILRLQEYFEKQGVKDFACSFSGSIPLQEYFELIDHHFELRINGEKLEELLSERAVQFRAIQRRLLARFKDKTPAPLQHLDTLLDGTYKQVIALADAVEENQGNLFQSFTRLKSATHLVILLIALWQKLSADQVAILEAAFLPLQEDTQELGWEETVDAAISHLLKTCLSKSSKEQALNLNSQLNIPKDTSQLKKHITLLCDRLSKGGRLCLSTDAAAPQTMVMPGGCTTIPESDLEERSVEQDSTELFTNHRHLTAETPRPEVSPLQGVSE
# Variants of: B1
# Settings: with pthb1_human BBS9, Q3SYG4
row,Variant,effect of a mutation on the interaction
1,MSVLDALWEDRDVRFDLSAQQMKTRPGEVLIDCLDSIEDTKGNNGDRGRLLVTNLRILWHSLALSRVNVSVGYNCILNITTRTANSKLRGQTEALYILTKCNSTRFEFIFTNLVPGSPRLFTSVMAVHRAYETSKMYRDFKLRSALIQNKQLRLLPQEHVYDKINGVWNLSSDQGNLGTFFITNVRIVWHANMNDSFNVSIPYLQIRSIKIRDSKFGLALVIESSQQSGGYVLGFKIDPVEKLQESVKEINSLHKVYSASPIFGVDYEMEEKPQPLEALTVEQIQDDVEIDSDGHTDAFEAYFADGNKQQDREPVFSEELGLAIEKLKDGFTLQGLWEVMS [V300E],with no effect
2,MSVLDALWEDRDVRFDLSAQQMKTRPGEVLIDCLDSIEDTKGNNGDRGRLLVTNLRILWHSLALSRVNVSVGYNCILNITTRTANSKLRGQTEALYILTKCNSTRFEFIFTNLVPGSPRLFTSVMAVHRAYETSKMYRDFKLRSALIQNKQLRLLPQEHVYDKINGVWNLSSDQGNLGTFFITNVRIVWHANMNDSFNVSIPYLQIRSIKIRDSKFGLALVIESSQQSGGYVLGFKIDPVEKLQESVKEINSLHKVYSASPIFGVDYEMEEKPQPLEALTVEQIQDDVEIDSDGHTDAFAAYFADGNKQQDREPVFSEELGLAIEKLKDGFTLQGLWEVMS [V300A],with no effect
3,MSVLDALWEDRDVRFDLSAQQMKTRPGEVLIDCLDSIEDTKGNNGDRGRLLVTNLRILWHSLALSRVNVSVGYNCILNITTRTANSKLRGQTEALYILTKCNSTRFEFIFTNLVPGSPRLFTSVMAVHRAYETSKMYRDFKLRSALIQNKQLRLLPQEHVYDKINGVWNLSSDQGNLGTFFITNVRIVWHANMNDSFNVSIPYLQIRSIKIRDSKFGLALVIESSQQSGGYVLGFKIDPVEKLQESVKEINSLHKVYSASPIFGVDYEMEEKPQPLEALTVEQIQDDVEIDSDGHTKAFVAYFADGNKQQDREPVFSEELGLAIEKLKDGFTLQGLWEVMS [D297K],with no effect
4,MSVLDALWEDRDVRFDLSAQQMKTRPGEVLIDCLDSIEDTKGNNGDRGRLLVTNLRILWHSLALSRVNVSVGYNCILNITTRTANSKLRGQTEALYILTKCNSTRFEFIFTNLVPGSPRLFTSVMAVHRAYETSKMYRDFKLRSALIQNKQLRLLPQEHVYDKINGVWNLSSDQGNLGTFFITNVRIVWHANMNDSFNVSIPYLQIRSIKIRDSKFGLALVIESSQQSGGYVLGFKIDPVEKLQESVKEINSLHKVYSASPIFGVDYEMEEKPQPLEALTVEQIQDDVEIDSDGHTEAFVAYFADGNKQQDREPVFSEELGLAIEKLKDGFTLQGLWEVMS [D297E],with no effect
5,MSVLDALWEDRDVRFDLSAQQMKTRPGEVLIDCLDSIEDTKGNNGDRGRLLVTNLRILWHSLALSRVNVSVGYNCILNITTRTANSKLRGQTEALYILTKCNSTRFEFIFTNLVPGSPRLFTSVMAVHRAYETSKMYRDFKLRSALIQNKQLRLLPQEHVYDKINGVWNLSSDQGNLGTFFITNVRIVWHANMNDSFNVSIPYLQIRSIKIRDSKFGLALVIESSQQSGGYVLGFKIDPVEKLQESVKEINSLHKVYSASPIFGVDYEMEEKPQPLEALTVEQIQDDVEIDSDGHTDAKVAYFADGNKQQDREPVFSEELGLAIEKLKDGFTLQGLWEVMS [F299K],with no effect
6,MSVLDALWEDRDVRFDLSAQQMKTRPGEVLIDCLDSIEDTKGNNGDRGRLLVTNLRILWHSLALSRVNVSVGYNCILNITTRTANSKLRGQTEALYILTKCNSTRFEFIFTNLVPGSPRLFTSVMAVHRAYETSKMYRDFKLRSALIQNKQLRLLPQEHVYDKINGVWNLSSDQGNLGTFFITNVRIVWHANMNDSFNVSIPYLQIRSIKIRDSKFGLALVIESSQQSGGYVLGFKIDPVEKLQESVKEINSLHKVYSASPIFGVDYEMEEKPQPLEALTVEQIQDDVEIDSDGHTDAAVAYFADGNKQQDREPVFSEELGLAIEKLKDGFTLQGLWEVMS [F299A],with no effect
7,MSVLDALWEDRDVRFDLSAQQMKTRPGEVLIDCLDSIEDTKGNNGDRGRLLVTNLRILWHSLALSRVNVSVGYNCILNITTRTANSKLRGQTEALYILTKCNSTRFEFIFTNLVPGSPRLFTSVMAVHRAYETSKMYRDFKLRSALIQNKQLRLLPQEHVYDKINGVWNLSSDQGNLGTFFITNVRIVWHANMNDSFNVSIPYLQIRSIKIRDSKFGLALVIESSQQSGGYVLGFKIDPVEKLQESVKEINSLHKVYSASPIFGVDYEMEEKPQPLEALTVEQIQDDVEIDSDGHTDAEVAYFADGNKQQDREPVFSEELGLAIEKLKDGFTLQGLWEVMS [F299E],with no effect
8,MSVLDALWEDRDVRFDLSAQQMKTRPGEVLIDCLDSIEDTKGNNGDRGRLLVTNLRILWHSLALSRVNVSVGYNCILNITTRTANSKLRGQTEALYILTKCNSTRFEFIFTNLVPGSPRLFTSVMAVHRAYETSKMYRDFKLRSALIQNKQLRLLPQEHVYDKINGVWNLSSDQGNLGTFFITNVRIVWHANMNDSFNVSIPYLQIRSIKIRDSKFGLALVIESSQQSGGYVLGFKIDPVEKLQESVKEINSLHKVYSASPIFGVDYEMEEKPQPLEALTVEQIQDDVEIDSDGHTDEFVAYFADGNKQQDREPVFSEELGLAIEKLKDGFTLQGLWEVMS [A298E],with no effect
9,MSVLDALWEDRDVRFDLSAQQMKTRPGEVLIDCLDSIEDTKGNNGDRGRLLVTNLRILWHSLALSRVNVSVGYNCILNITTRTANSKLRGQTEALYILTKCNSTRFEFIFTNLVPGSPRLFTSVMAVHRAYETSKMYRDFKLRSALIQNKQLRLLPQEHVYDKINGVWNLSSDQGNLGTFFITNVRIVWHANMNDSFNVSIPYLQIRSIKIRDSKFGLALVIESSQQSGGYVLGFKIDPVEKLQESVKEINSLHKVYSASPIFGVDYEMEEKPQPLEALTVEQIQDDVEIDSDGHTDKFVAYFADGNKQQDREPVFSEELGLAIEKLKDGFTLQGLWEVMS [A298K],with no effect
